From patent publication US20220064691A1 (ABERA BIOSCIENCE, published 2022) come the findings set out here.

The target of experiment [1] is ssTorA(3×)-MBP-SpT. Put plainly: overview table of covalent ligation to inclusion bodies.
Experiment [2] concerns the target ssTorA(3×)-MBP-SpT. As to the kind of experiment: covalent coupling to inclusion bodies in PBS, 25 °C 2 h; SDS-PAGE and Coomassie staining.
Protocol: The mixtures were incubated at 25° C. for 2h. The inclusion bodies were collected through centrifugation and resuspended in PBS.

B1: GFPnb-SpyCatcher (VHH)
VHH: MVQLVESGGALVQPGGSLRLSCAASGFPVNRYSMRWYRQAPGKEREWVAGMSSAGDRSSYEDSVKGRFTISRDDARNTVYLQMNSLKPEDTAVYYCNVNVGFEYWGQGTQVTVSS
notes: also called GFPnb-SpC; GFPNanobody-SpyCatcher
For the molecule B1, in the experiment with ssTorA(3×)-MBP-SpT [1], the binding result is on record as “binds”.

B2: GFPnb-SpC EQ (VHH)
VHH: B1 VHH
In the case of B2, the binding result in the experiment with ssTorA(3×)-MBP-SpT [2] was “no binding (tested: 3.2 µM)”.
